From US9416162B2, “Peptides having reduced toxicity that stimulate cholesterol efflux” (The Regents of the University of California, priority 2013, dated 2016)
Non-standard residues stand in square brackets, D forms with d. No end group written: not given here. Cit = NC(=O)NCCC[C@H](N)C(=O)O

Tests used:
[1] = system: New Zealand White rabbits; experiment: High-dose IV bolus toxicity of ATI-5261 in rabbits (plasma ALT, AST, TG, unesterified cholesterol); type: in vivo, rabbit; conditions: male New Zealand White rabbits, single IV bolus 3, 30 or 300 mg/kg
Description: Peptides or peptidomimetics of the invention can be evaluated for toxicity using known assays. Examples of such assays are illustrated in the Examples section. Toxicity is typically assayed in a rat, rabbit, mouse, monkey or dog model. […] Safety chemistry panels including plasma alanine aminotransferase (ALT), aspartate amino transferase (AST), and creatine kinase (CK) can then be determined in the blood. The presence of elevated levels of these enzymes in the blood compared to control normal values is indicative of toxicity. A peptide of the invention is typically considered to be non-toxic or to have little toxicity, when the results using the highest dose, 300 mg/kg in this illustrative assay, are equivalent (fall within the standard deviation) of the values measured for the control animals that received vehicle alone, or are no more than 2 or 3 times background obtained with vehicle alone. […]
(§1) Cytotoxicity of an HDL mimetic peptide ATI-5261 at high doses was evaluated in rats and rabbits (FIG. 1). […]
For the experiments in FIG. 2, male chow-fed Wistar rats (Panels A and B) were administered ATI-5261 at doses of 3, 30, and 300 mg/kg as described in FIG. 1. Plasma triglyceride (TG, Panel A) and unesterified cholesterol (Panel B) concentrations were determined enzymatically at the times indicated. […]

Wistar rats = experiment: High-dose IV toxicity of ATI-5261 in rats (plasma ALT, AST, TG, unesterified cholesterol); type: in vivo, rat
Description: Peptides or peptidomimetics of the invention can be evaluated for toxicity using known assays. Examples of such assays are illustrated in the Examples section. Toxicity is typically assayed in a rat, rabbit, mouse, monkey or dog model. In an illustrative assay, such as that described in Example 1, a peptide is administered intravenously using a rabbit or rat model at doses of 3, 30, and 300 mg/kg and vehicle alone is also administered at 48 hour intervals for a total of four injections. Safety chemistry panels including plasma alanine aminotransferase (ALT), aspartate amino transferase (AST), and creatine kinase (CK) can then be determined in the blood. The presence of elevated levels of these enzymes in the blood compared to control normal values is indicative of toxicity. A peptide of the invention is typically considered to be non-toxic or to have little toxicity, when the results using the highest dose, 300 mg/kg in this illustrative assay, are equivalent (fall within the standard deviation) of the values measured for the control animals that received vehicle alone, or are no more than 2 or 3 times background obtained with vehicle alone. In some embodiments, a toxicity assay is performed where the toxicity of a peptide of the invention is compared to that to ATI-5261. […]
as §1

cynomolgus monkeys = experiment: IV infusion toxicity in cynomolgus monkeys (ALT, AST, CPK, bilirubin); type: in vivo, cynomolgus monkey
Description: Male (upper panel) and female lower panel) cynomolgus monkeys were administered ATI-5261 at a fixed dose of 100 mg/kg by IV infusion (60 min) every 96 hours for a total of 4 injections. Blood was collected 24 h post infusion and levels of plasma ALT, AST, creatine kinase (CPK), and total and indirect bilirubin were determined Values are expressed as a fold-increase vs. pre-dose levels.

HDL in human plasma = experiment: preβ HDL formation in human plasma, 2D NDGGE and western blot
Description: To test whether CS6253 exerts anti-atherogenic effects in a biological milieu, human plasma was exposed (5 min) to lipid-free peptide. Interactions of CS6253 with HDL and activity of plasma to stimulate cholesterol efflux was assessed, using J774 macrophages labeled with [^3H]cholesterol. Panel A—Cholesterol efflux activity of plasma treated with lipid-free peptides. Human plasma was incubated with 300 μg/ml peptides for 5 minutes (4° C.), diluted to 1% in serum-free RPMI-1640 culture medium and immediately added to [^3H]cholesterol-labeled J774 cells. […] Panel B—Induction of preβ HDL upon treatment of human plasma with CS6253. Plasma was exposed to a small amount of peptide relative to endogenous apoA-I (1:10 mole ratio, respectively) and formation of preβ HDL assessed by 2D non-denaturing gradient gel electrophoresis (NDGGE) and western blot analysis. […] This is consistent with no peptide being associated with the preβ HDL fraction, indicating the particles were authentic preβ particles composed on endogenous apoA-I.

apoE−/− mice = experiment: Macrophage reverse cholesterol transport (RCT) to feces in vivo; parameters: species or system mouse; conditions: male apoE−/− mice, IP lipid-free peptide 10 or 30 mg/kg
Description: J774 macrophage foam-cells (acetylated LDL, 100 μg/ml) labeled with [^3H]cholesterol were injected IP into male, atherosclerotic apoE deficient (apoE^−/−) mice 5 months of age together with vehicle alone (PBS) or with lipid-free CS6253 peptide at doses of 10 or 30 mg/kg. Feces were collected at 24 h for assessment of [^3H]sterol. Values are means±SD, n=5 mice per group.

“ATI-5261: HDL mimetic peptide, parent peptide; triglyceride elevating and muscle toxic peptide used as positive control (EVRSKLEEWFAAFREFAEEFLARLKS) [reference compound]” was tested, and the “cytotoxic response (plasma ALT and AST)” value [1] was “induced a cytotoxic response”, the “plasma triglycerides and cholesterol” value [1] was “increased plasma triglycerides and cholesterol” and the “plasma triglycerides and cholesterol” value (Wistar rats; male Wistar rats, IV 3, 30, 300 mg/kg) was “increased plasma triglycerides and cholesterol”. The “cytotoxic response (plasma ALT and AST)” value (Wistar rats; male chow-fed Wistar rats, IV 3, 30 and 300 mg/kg at 48 h intervals, 4 injections) was “induced a cytotoxic response”, the “cytotoxic response (ALT, AST, CPK, bilirubin)” value (cynomolgus monkeys; 100 mg/kg IV infusion (60 min) every 96 hours, 4 injections, blood 24 h post infusion) was “induced a cytotoxic response” and the “plasma creatine kinase (CPK), fold-increase vs. pre-dose levels” value (cynomolgus monkeys; 100 mg/kg IV infusion, after the first infusion, male and female monkeys) was “marked increase”.
In the case of “EVCitSKLEEWLAALCitELAEELLARLKS (SEQ ID NO:2) (EV[Cit]SKLEEWLAAL[Cit]ELAEELLARLKS) [CS6253, citrulline form of LeuATI-5261, R3,14→Citrulline, 26-mer]”, the “association of peptide with HDL species in plasma” value (HDL in human plasma; antibody against CS6253) is reported as “associated with α-HDL”, the “preβ HDL formation” value (HDL in human plasma; peptide:endogenous apoA-I 1:10 mole ratio, apoA-I antibody) is reported as “increase in preβ HDL” and the “macrophage RCT, [3H]sterol in feces at 24 h” value (apoE−/− mice) is reported as “stimulated macrophage RCT”.
